Assay results as given in the supplement of paper PMC12855868.

B1: library; numbered along this chain (parent)
chain: MAAAGGARLLRAASAVLGGPAGRWLHHAGSRAGSSGLLRNRGPGGSAEASRSLSVSARARSSSEDKITVHFINRDGETLTTKGKVGDSLLDVVVENNLDIDGFGACEGTLACSTCHLIFEDHIYEKLDAITDEENDMLDLAYGLTDRSRLGCQICLTKSMDNMTVRVPETVADARQSIDVGKTS

Variants of: B1
Assay: scaled log2 fold change in cell abundance, elesclomol vs control (0 = silent mean, 1 = nonsense mean) (scaled log2 ratio); higher = higher viability under elesclomol (loss of FDX1 cuproptosis function)
Settings: glucose 10 mM
[1] = with ABC1 FDX1 KO, elesclomol 5 nM, 14 days
[2] = with HEK293T FDX1 KO, elesclomol 40 nM, 11 days
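Further: variant abundance is its share of total variant reads in each endpoint sample, from next-generation sequencing of the integrated ORF PCR-amplified out of genomic DNA.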

Variant	scaled log2 fold change [1]	scaled log2 fold change [2]
D99T	0.182	-0.092
D99W	-0.0217	-0.818
D99G	-1	-0.777
D99P	0.167	-0.37
D99N	-0.0926	-0.216
D99E	0.144	0.199
D99H	-0.403	-0.137
D99Q	0.0501	-1.25
D99I	0.14	-0.0831
D99R	-0.084	0.945
D99A	0.0591	-1.37
D99K	0.114	-0.24
D99L	-0.286	-0.152
D99M	-0.0783	0.944
D99C	0.108	0.138
D99V	0.0908	-1.19
D99F	-0.0227	0.0629
D99Y	-0.0205	0.198
D99S	-0.273	-0.316
D101T	-0.218	-0.744
D101W	0.326	-0.257
D101L	-0.471	-0.161
D101H	-0.018	-0.455
D101Q	0.0405	-0.42

Variant	scaled log2 fold change [1]	scaled log2 fold change [2]
D101P	-0.357	-0.96
D101F	-0.332	0.0209
D101I	-0.248	-0.191
D101Y	0.239	1.05
D101R	0.0225	-0.328
D101V	0.24	-0.613
D101A	-0.221	-0.578
D101M	0.241	0.684
D101G	0.085	-0.787
D101C	-0.242	0.242
D101S	-0.19	-0.82
D101K	0.0609	0.803
D101N	-0.201	-0.0138
D101E	0.0987	-0.481
V94F	-0.376	-0.411
V94C	-0.491	0.199
V94Y	-0.0972	0.515
V94H	-0.328	0.317
V94I	-0.52	0.00216
V94G	-0.377	
V94S	-0.223	-1
V94L	0.0554	-0.336
V94M	-0.224	1.17
V94T	-0.0231	

Variant	scaled log2 fold change [1]	scaled log2 fold change [2]
V94K	-0.573	-0.482
V94E	0.00926	-0.058
V94R	-0.258	1
V94P	0.617	0.378
V94W	0.0681	0.96
V94A	0.0221	0.0839
V94D	-0.313	
V94Q	0.235	-0.226
V94N	-0.345	-1.27
G102T	-0.0667	2.33
G102W	0.225	0.879
G102I	0.0866	0.0202
G102P	0.0181	-0.00988
G102L	0.0952	-0.752
G102V	0.298	-0.174
G102Q	-0.0113	0.76
G102N	-0.336	0.807
G102C	0.0125	0.0278
G102R	0.164	-1.7
G102S	0.293	0.861
G102A	0.0393	-0.812
G102D	-0.0623	-0.526
G102E	0.427	-0.163
G102H	0.0379	0.869

Variant	scaled log2 fold change [1]	scaled log2 fold change [2]
G102F	-0.00949	-0.289
G102K	0.473	-0.277
G102M	-0.196	-0.665
L98P	-0.901	0.205
L98G	0.225	0.327
L98D	0.341	0.871
L98I	-0.0119	-0.482
L98H	0.186	0.86
L98E	0.00205	0.172
L98R	0.136	0.607
L98C	-0.21	-0.505
L98A	-0.194	-1.06
L98W	0.476	0.189
L98N	0.309	0.504
L98T	-0.168	0.331
L98V	-0.0512	-0.662
L98Y	0.000145	-0.257
L98F	-0.0232	-0.902
L98M	0.0485	0.18
L98Q	0.167	-0.327
L98S	0.421	-0.0745
L98K	0.356	0.0251
N96W	-0.0659	-0.145
N96F	0.145	-0.464

Variant	scaled log2 fold change [1]	scaled log2 fold change [2]
N96E	0.241	-0.435
N96A	-0.307	1.03
N96M	0.283	-0.778
N96H	0.245	
N96G	0.111	0.179
N96R	0.204	-0.0627
N96C	-0.324	-0.592
N96S	-0.155	-0.272
N96D	0.104	0.22
N96Y	-0.25	-0.153
N96P	0.423	-0.187
N96T	-0.0877	-0.163
N96L	0.0905	0.033
N96Q	-0.22	0.0675
N96K	-0.0525	-0.121
N96I	0.329	0.221
N96V	0.307	0.567
V92S	0.501	-0.213
V92Y	0.0368	-0.087
V92R	1.1	0.379
